In US8765433B2, “Alcohol dehydrogenases (ADH) useful for fermentive production of lower alkyl alcohols” (priority 2009, dated 2014):

Key:
[1] = substrate: CC(C)C=O; assay: isobutyraldehyde reduction kinetics (A340, initial rates); assay type: biochemical, Thermus sp. ATN1; conditions: other: 30° C., pH 7.0, NADH specific
Description: The assays for determining the kinetic constants were carried out using initial rates from the assays described above. […] The concentration of a given enzyme was such that it was conducive for the measurement of initial velocities over a 1-min time course. For each enzyme, Michaelis-Menten plots were generated with a broad range of substrate concentrations. Rough estimates of KM were obtained, based on which the assays were redesigned so as to use substrate concentrations in the range 0.5 to 10 times the KM value, to be able to obtain the appropriate kinetic constants. […] The Enzyme kinetics module (Version 1.3) of SigmaPlot 11 (Systat Software, Inc.) was used to fit data to Michaelis-Menten equations and calculate the kinetic constants. The kcat/KM is derived from the individual numbers of kcat and KM and not an experimentally determined value.
All other numbers are values from either one assay or are averages from 2 assays performed with the same enzyme sample.

[2] = substrate: CC(C)C=O; assay: as above; assay type: biochemical, Clostridium beijerinckii; conditions: other: 30° C., pH 7.0, NADPH specific
[3] = substrate: CC(C)C=O; assay: as above; assay type: biochemical, Phenylobacterium zucineum HLK1; conditions: other: 30° C., pH 7.0, NADH specific
Text: (§1) This example describes preparation of ADH-gene constructs for over-expression/purification and measurement of enzyme activities using a time-course assay. Horse-liver ADH (HLADH; A-6128) was purchased from Sigma. Achromobacter xylosoxidans SadB (SadB), Saccharomyces cerevisiae ADH6 (ScADH6) and ADH7 (ScADH7), Entamoeba histolytica ADH1 (EhADH1), Bos Taurus Aldehyde Reductase (BtARD), Beijerinckia indica subsp. Indica ATCC 9039 (BiADH), Clostridium beijerinckii ADH (CbADH), Rana perezi ADH8 (RpADH8), Rattus norvegicus ADH1 (RnADH1), Thermus sp. ATN1 ADH (TADH), Phenylobacterium zucineum HLK1 ADH (PzADH), Methylocella silvestris BL2 ADH (MsADH), Acinetobacter baumannii AYE ADH (AbADH), Geobacillus sp. WCH70 ADH (GbADH), Vanderwaltozyma polyspora DSM 70294 ADH (VpADH), Mucor circinelloides ADH (McADH), and Rhodococcus erythropolis PR4ADH (ReADH) were the candidates for which subclones were prepared for protein expression and purification.
(§2) As a routine practice, the crude extracts and purified proteins were assayed for butanol oxidation activity, in order to ensure that the recombinant proteins were active throughout the purification process. […] Alcohol oxidation activities were carried out in 50 mM sodium phosphate buffer at pH 8.8 and aldehyde reduction reactions were assayed in 190 mM potassium phosphate buffer at pH 7.0. […]
(§3) Kinetic constants of the ADH enzymes were calculated and compared to identify those candidate ADH enzymes with the most desirable properties for the conversion of isobutyraldehyde to isobutanol in the last step of the engineered pathway for isobutanol production. […] The kcat/KM is derived from the individual numbers of kcat and KM and not an experimentally determined value. […]
(§4) Seven additional candidate ADH enzymes were synthesized, expressed, and assayed according to methods such as described in Example 2. […] A comparison of KM, KI, and kcat/KM for each candidate enzyme as compared to the same parameter for SadB are given in Table 9 as a percentage of the values determined (Table 7) for SadB. […]

[4] = substrate: CC(C)C=O; assay: as above; assay type: biochemical, Saccharomyces cerevisiae; conditions: other: 30° C., pH 7.0, NADPH specific
[5] = substrate: CC(C)C=O; assay: as above; assay type: biochemical, Methylocella silvestris BL2; conditions: other: 30° C., pH 7.0, NADH specific
Text: as §1, §2, §3, §4

[6] = substrate: CC(C)C=O; assay: as above; assay type: biochemical, horse; conditions: other: 30° C., pH 7.0, 200 μM NADH
Description: (§6) The assays for determining the kinetic constants were carried out using initial rates from the assays described above. […] The concentration of a given enzyme was such that it was conducive for the measurement of initial velocities over a 1-min time course. […] The kcat/KM is derived from the individual numbers of kcat and KM and not an experimentally determined value. […]

[7] = substrate: CC(C)CO; assay: isobutanol oxidation kinetics; assay type: biochemical, horse; conditions: other: 30° C., pH 8.8, 7.5 mM NAD
Description: (§5) As a routine practice, the crude extracts and purified proteins were assayed for butanol oxidation activity, in order to ensure that the recombinant proteins were active throughout the purification process. […] Alcohol oxidation activities were carried out in 50 mM sodium phosphate buffer at pH 8.8 and aldehyde reduction reactions were assayed in 190 mM potassium phosphate buffer at pH 7.0. Depending on the nature of reaction being carried out, the enzyme and cofactor stocks were diluted in the reaction buffers at the respective pHs. Either buffer or cell extract prepared from the proprietary E. coli strain (with no ADH plasmid) was used as the negative control for assays with purified protein and cell-free extracts, respectively.
as §3, with “production. The assays for determining the kinetic constants were carried out using initial rates from the assays described above. […] The concentration of a given enzyme was such that it was conducive for the measurement of initial velocities over a 1-min time course.” for “production.”

[8] = substrate: NC(=O)C1=CN([C@@H]2O[C@H](COP(=O)(O)OP(=O)(O)OC[C@H]3O[C@@H](n4cnc5c(N)ncnc54)[C@H](O)[C@@H]3O)[C@@H](O)[C@H]2O)C=CC1; assay: purified protein, by the assay type; conditions: other: cofactor; 30.0 °C
[9] = substrate: CC(C)CO; assay: isobutanol oxidation kinetics; assay type: biochemical, Beijerinckia indica; conditions: other: 30° C., pH 8.8, 7.5 mM NAD
Description: as §5
as §3, with “production. The assays for determining the kinetic constants were carried out using initial rates from the assays described above. […] The concentration of a given enzyme was such that it was conducive for the measurement of initial velocities over a 1-min time course.” for “production.”

[10] = substrate: CC(C)C=O; assay: purified protein, by the assay type; assay type: biochemical, Beijerinckia indica; conditions: other: 30° C., pH 7.0, 200 μM NADH
Description: as §6

B1: Thermus sp. ATN1 ADH (TADH), SEQ ID NO: 33 (Thermus sp. ATN1) (protein)
chain: MRAVVFENKERVAVKEVNAPRLQHPLDALVRVHLAGICGSDLHLYHGKIPVLPGSVLGHEFVGQVEAVGEGIQDLQPGDWVVGPFHIACGTCPYCRRHQYNLCERGGVYGYGPMFGNLQGAQAEILRVPFSNVNLRKLPPNLSPERAIFAGDILSTAYGGLIQGQLRPGDSVAVIGAGPVGLMAIEVAQVLGASKILAIDRIPERLERAASLGAIPINAEQENPVRRVRSETNDEGPDLVLEAVGGAATLSLALEMVRPGGRVSAVGVDNAPSFPFPLASGLVKDLTFRIGLANVHLYIDAVLALLASGRLQPERIVSHYLPLEEAPRGYELFDRKEALKVLLVVRG
What does the source list for B1?
Km [1]: 1300 µM; kcat [1]: 15 s⁻¹; kcat/Km [1]: 11000 M⁻¹ s⁻¹

B2: Clostridium beijerinckii ADH (CbADH), SEQ ID NO: 29 (Clostridium beijerinckii) (protein)
chain: MKGFAMLGINKLGWIEKERPVAGSYDAIVRPLAVSPCTSDIHTVFEGALGDRKNMILGHEAVGEVVEVGSEVKDFKPGDRVIVPCTTPDWRSLEVQAGFQQHSNGMLAGWKFSNFKDGVFGEYFHVNDADMNLAILPKDMPLENAVMITDMMTTGFHGAELADIQMGSSVVVIGIGAVGLMGIAGAKLRGAGRIIGVGSRPICVEAAKFYGATDILNYKNGHIVDQVMKLTNGKGVDRVIMAGGGSETLSQAVSMVKPGGIISNINYHGSGDALLIPRVEWGCGMAHKTIKGGLCPGGRLRAEMLRDMVVYNRVDLSKLVTHVYHGFDHIEEALLLMKDKPKDLIKAVVIL
notes: hexa-histidine (pBADHisA) (N); made in house; host or cells: E. coli (BL21-CodonPlus or a proprietary E. coli strain)
With B2 as the protein, how does the Km [2] read?
The Km was 1500 µM.

What about the kcat [2] of the same protein?
Its kcat is 123 s⁻¹.

And the kcat/Km [2]?
The kcat/Km was 85000 M⁻¹ s⁻¹.

B3: Phenylobacterium zucineum HLK1 ADH (PzADH), SEQ ID NO: 34 (Phenylobacterium zucineum HLK1) (protein)
chain: MKALVYGGPGQKSLEDRPKPELQAPGDAIVRIVKTTICGTDLHILKGDVATCAPGRILGHEGVGIVDSVGAAVTAFRPGDHVLISCISACGKCDYCRRGMYSHCTTGGWILGNEIDGTQAEYVRTPHADTSLYPVPAGADEEALVMLSDILPTGFECGVLNGKVAPGGTVAIVGAGPIGLAALLTAQFYSPAEIIMIDLDDNRLGIARQFGATQTINSGDGRAAETVKALTGGRGVDTAIEAVGVPATFELCQDLVGPGGVIANIGVHGRKVDLHLDRLWSQNIAITTRLVDTVSTPMLLKTVQSRKLDPSQLITHRFRLDEILAAYDTFARAADTQALKVIIAA
Which results are given for B3?
Km [3]: 100 µM; kcat [3]: 30 s⁻¹; kcat/Km [3]: 321000 M⁻¹ s⁻¹

B4: Saccharomyces cerevisiae ADH7 (ScADH7), SEQ ID NO: 23 (Saccharomyces cerevisiae S288C) (protein)
chain: MLYPEKFQGIGISNAKDWKHPKLVSFDPKPFGDHDVDVEIEACGICGSDFHIAVGNWGPVPENQILGHEIIGRVVKVGSKCHTGVKIGDRVGVGAQALACFECERCKSDNEQYCTNDHVLTMWTPYKDGYISQGGFASHVRLHEHFAIQIPENIPSPLAAPLLCGGITVFSPLLRNGCGPGKRVGIVGIGGIGHMGILLAKAMGAEVYAFSRGHSKREDSMKLGADHYIAMLEDKGWTEQYSNALDLLVVCSSSLSKVNFDSIVKIMKIGGSIVSIAAPEVNEKLVLKPLGLMGVSISSSAIGSRKEIEQLLKLVSEKNVKIWVEKLPISEEGVSHAFTRMESGDVKYRFTLVDYDKKFHK
notes: as for B2
B4 was tested. Which Km [4] did it give?
The Km was 300 µM.

What about the kcat [4] of the same protein?
The kcat was 36 s⁻¹.

What about the kcat/Km [4] of the same protein?
The kcat/Km was 120000 M⁻¹ s⁻¹.

B5: Methylocella silvestris BL2 ADH (MsADH), SEQ ID NO: 35 (Methylocella silvestris BL2) (protein)
chain: MKALVYHGPGQKALEERPKPQIEASGDAIVKIVKTTICGTDLHILKGDVATCAPGRILGHEGVGIIDSVGAGVTAFQPGDRVLISCISSCGKCDYCRRGLYSHCTTGGWILGNEIDGTQAEYVRTPHADTSLYRIPAGADEEALVMLSDILPTGFECGVLNGKVEPGSTVAIVGAGPIGLAALLTAQFYAPGDIIMIDLDDNRLDVARRFGATHTINSGDGKAAEAVKALTGGIGVDTAIEAVGIPATFLLCEDIVAPGGVIANVGVHGVKVDLHLERLWAHNITITTRLVDTVTTPMLLKTVQSKKLDPLQLITHRFTLDHILDAYDTFSRAADTKALKVIVSA
Which Km [5] does the source give for B5 here?
The Km was 60 µM.

What about the kcat [5] of the same protein?
Its kcat is 33 s⁻¹.

What about the kcat/Km [5] of the same protein?
The kcat/Km was 530000 M⁻¹ s⁻¹.

B6: horse liver ADH (HLADH), SEQ ID NO: 21 (Equus caballus) (protein)
chain: MSTAGKVIKCKAAVLWEEKKPFSIEEVEVAPPKAHEVRIKMVATGICRSDDHVVSGTLVTPLPVIAGHEAAGIVESIGEGVTTVRPGDKVIPLFTPQCGKCRVCKHPEGNFCLKNDLSMPRGTMQDGTSRFTCRGKPIHHFLGTSTFSQYTVVDEISVAKIDAASPLEKVCLIGCGFSTGYGSAVKVAKVTQGSTCAVFGLGGVGLSVIMGCKAAGAARIIGVDINKDKFAKAKEVGATECVNPQDYKKPIQEVLTEMSNGGVDFSFEVIGRLDTMVTALSCCQEAYGVSVIVGVPPDSQNLSMNPMLLLSGRTWKGAIFGGFKSKDSVPKLVADFMAKKFALDPLITHVLPFEKINEGFDLLRSGESIRTILTF
notes: purchased Sigma A-6128
How did the Km [6] turn out when B6 was run?
The Km was 100 µM.

And the kcat [6]?
Its kcat is 8 s⁻¹.

And the kcat/Km [6]?
The kcat/Km was 82000 M⁻¹ s⁻¹.

And the Km [7]?
Its Km is “KM = 0.4 mM] mM”.

B7: Saccharomyces cerevisiae ADH6 (ScADH6), SEQ ID NO: 22 (Saccharomyces cerevisiae S288C) (protein)
chain: MSYPEKFEGIAIQSHEDWKNPKKTKYDPKPFYDHDIDIKIEACGVCGSDIHCAAGHWGNMKMPLVVGHEIVGKVVKLGPKSNSGLKVGQRVGVGAQVFSCLECDRCKNDNEPYCTKFVTTYSQPYEDGYVSQGGYANYVRVHEHFVVPIPENIPSHLAAPLLCGGLTVYSPLVRNGCGPGKKVGIVGLGGIGSMGTLISKAMGAETYVISRSSRKREDAMKMGADHYIATLEEGDWGEKYFDTFDLIVVCASSLTDIDFNIMPKAMKVGGRIVSISIPEQHEMLSLKPYGLKAVSISYSALGSIKELNQLLKLVSEKDIKIWVETLPVGEAGVHEAFERMEKGDVRYRFTLVGYDKEFSD
notes: as for B2
Which results are given for B7?
Km [4]: 600 µM; kcat [4]: 47 s⁻¹; kcat/Km [4]: 81000 M⁻¹ s⁻¹

B8: Beijerinckia indica subsp. Indica ATCC 9039 ADH (BiADH), SEQ ID NO: 31 (Beijerinckia indica subsp. indica ATCC 9039) (protein)
chain: MKALVYRGPGQKLVEERQKPELKEPGDAIVKVTKTTICGTDLHILKGDVATCKPGRVLGHEGVGVIESVGSGVTAFQPGDRVLISCISSCGKCSFCRRGMFSHCTTGGWILGNEIDGTQAEYVRVPHADTSLYRIPAGADEEALVMLSDILPTGFECGVLNGKVAPGSSVAIVGAGPVGLAALLTAQFYSPAEIIMIDLDDNRLGLAKQFGATRTVNSTGGNAAAEVKALTEGLGVDTAIEAVGIPATFELCQNIVAPGGTIANVGVHGSKVDLHLESLWSHNVTITTRLVDTATTPMLLKTVQSHKLDPSRLITHRFSLDQILDAYETFGQAASTQALKVIISMEA
Which Km [8] does the source give for B8 here?
The Km was “KM (NADH) = 0.06 mM mM”.

What about the Km [9] of the same protein?
Its Km is “KM = 4.7 mM] mM”.

And the Km [10]?
The Km was 200 µM.

What about the kcat [10] of the same protein?
The kcat was 283 s⁻¹.

What about the kcat/Km [10] of the same protein?
The kcat/Km was 1.25e+06 M⁻¹ s⁻¹.
